Source: the supplement of paper PMC7877785
± gives the uncertainty stated by the source.

Test: self-splicing fitness, log relative to wild type (ln ratio); higher = more splicing; Tetrahymena group I intron in knt gene, E. coli kanamycin selection, DiMSum; sequences stand for … in CUCUCU…GGAGGGAAAAGUUAUCAGGCAUGCACCUGGUAGCUAGUCUUUAAACCAAUAGAUUGCAUCGGUUUAAAAGGCAAGACCGUCAAAUUGCGGGAAAGGGGUCAACAGCCGUUCAGUACCAAGUCUCAGGGGAAACUUUGAGAUGGCCUUGCAAAGGGUAUGGUAAUAAGCUGACGGACAUGGUCCUAACCACGCAGCCAAGUCCUAAGUCAACAGAUCUUCUGUUGAUAUGGAUGCAGUUCACAGACUAAAUGUCGGUCGGGGAAGAUGUAUUCUUCUCAUAAGAUAUAGUCGGACCUCUCCUUAAUGGGAGCUAGCGGAUGAAGUGAUGCAACACUGGAGCCGCUGGGAACUAAUUUGUAUGCGAAAGUAUAUUGAUUAGUUUUGGAGUACUCGUGGUCG
Method in brief: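 A randomised library covering all eight P1ex-region intron nucleotides was built with the intron in the knt kanamycin-resistance gene on pET-22b(+) and held in E. coli BL21(DE3). Cells were grown overnight at 37°C or 30°C on LB agar, with or without 25 μg/mL kanamycin, plus 100 μg/mL carbenicillin, 50 μM IPTG and 0.2% rhamnose, and pooled colonies were amplicon-sequenced on an Illumina HiSeq 2500. DiMSum fitness is the error-weighted combination of wild-type-normalised replicate fold changes, kanamycin versus none.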

Sequence	self-splicing fitness (ln) (30 °C)	self-splicing fitness (ln) (37 °C)
UAUAAGCAAUAUUACGGGAA	-2.77 ± 0.2	-1.5 ± 0.18
UAUAAGCAAUAUUACGGGUC	-3.27 ± 0.34	-1.78 ± 0.24
UAUAAGCAAUAUUACGGUUU	-2.58 ± 0.11	-1.24 ± 0.099
UAUAAGCAAUAUUACGUCUA	0.561 ± 0.077	0.494 ± 0.1
UAUAAGCAAUAUUACGUGCA	-0.333 ± 0.085	-0.0529 ± 0.1
UAUAAGCAAUAUUACGUGGC	-3.47 ± 0.32	-2.73 ± 0.44
UAUAAGCAAUAUUACGUUAG	-2.08 ± 0.14	-0.812 ± 0.14
UAUCAGCAAUAUUACGACAA	-0.495 ± 0.086	0.237 ± 0.097
UAUCAGCAAUAUUACGACUA	0.123 ± 0.068	0.517 ± 0.095
UAUCAGCAAUAUUACGACUU	-0.502 ± 0.067	-0.0466 ± 0.074
UAUCAGCAAUAUUACGAGAC	-2.38 ± 0.33	-1.75 ± 0.44
UAUCAGCAAUAUUACGAGUG	-0.353 ± 0.058	-0.197 ± 0.072
UAUCAGCAAUAUUACGCAAU	-1.96 ± 0.11	-0.74 ± 0.1
UAUCAGCAAUAUUACGCAUU	-1.42 ± 0.076	-0.197 ± 0.09
UAUCAGCAAUAUUACGCCUG	-0.368 ± 0.1	-0.425 ± 0.1
UAUCAGCAAUAUUACGCGGC	-2.77 ± 0.31	-1.62 ± 0.24
UAUCAGCAAUAUUACGCUAA	-0.647 ± 0.084	0.529 ± 0.099
UAUCAGCAAUAUUACGGAUC	-0.475 ± 0.11	-0.265 ± 0.13
UAUCAGCAAUAUUACGGCCG	-0.163 ± 0.11	0.391 ± 0.16
UAUCAGCAAUAUUACGGCUA	0.13 ± 0.085	0.848 ± 0.12
UAUCAGCAAUAUUACGGGAA	-1.65 ± 0.1	-0.124 ± 0.11
UAUCAGCAAUAUUACGGGGU	-3.6 ± 0.2	-2.48 ± 0.17
UAUCAGCAAUAUUACGGUAA	-0.552 ± 0.13	-0.308 ± 0.11
UAUCAGCAAUAUUACGGUCG	-0.0229 ± 0.059	0.259 ± 0.066
UAUCAGCAAUAUUACGUACU	-1.57 ± 0.089	-0.383 ± 0.1

Sequence	self-splicing fitness (ln) (30 °C)	self-splicing fitness (ln) (37 °C)
UAUCAGCAAUAUUACGUCAU	-1.88 ± 0.13	-1.42 ± 0.15
UAUCAGCAAUAUUACGUCUG	-0.947 ± 0.076	-0.205 ± 0.1
UAUCAGCAAUAUUACGUGCA	-0.589 ± 0.054	0.447 ± 0.078
UAUCAGCAAUAUUACGUGUC	-4.01 ± 0.17	-1.79 ± 0.12
UAUCAGCAAUAUUACGUUUU	-2.74 ± 0.084	-1.4 ± 0.085
UAUGAGCAAUAUUACGACAG	–	-1.78 ± 0.36
UAUGAGCAAUAUUACGACUG	-1.23 ± 0.12	-0.328 ± 0.14
UAUGAGCAAUAUUACGAUAA	-3.74 ± 0.33	-2.74 ± 0.27
UAUGAGCAAUAUUACGCAUU	-3.57 ± 0.25	-2.15 ± 0.22
UAUGAGCAAUAUUACGCCAA	–	-2.51 ± 0.37
UAUGAGCAAUAUUACGCCGA	-2.04 ± 0.34	-1.73 ± 0.26
UAUGAGCAAUAUUACGCCGC	-1.9 ± 0.31	-1.02 ± 0.42
UAUGAGCAAUAUUACGCGCU	-3.68 ± 0.31	-2.64 ± 0.28
UAUGAGCAAUAUUACGGACG	-2.79 ± 0.25	-1.19 ± 0.23
UAUGAGCAAUAUUACGGCGC	-3.47 ± 0.48	-1.46 ± 0.29
UAUGAGCAAUAUUACGGCUG	-1.01 ± 0.15	-0.14 ± 0.19
UAUGAGCAAUAUUACGGGCG	-2.75 ± 0.16	-2.12 ± 0.2
UAUGAGCAAUAUUACGGGCU	–	-1.8 ± 0.47
UAUGAGCAAUAUUACGGGGU	-2.98 ± 0.21	-2.2 ± 0.22
UAUGAGCAAUAUUACGUCCA	-2.26 ± 0.26	-2.86 ± 0.4
UAUGAGCAAUAUUACGUGGG	-3.55 ± 0.25	-3.94 ± 0.39
UAUGAGCAAUAUUACGUGUC	-3.77 ± 0.28	-3.2 ± 0.4
UAUGAGCAAUAUUACGUUCA	-1.29 ± 0.2	-0.652 ± 0.22
UAUGAGCAAUAUUACGUUUU	-4.02 ± 0.32	-2.45 ± 0.23
UAUUAGCAAUAUUACGAAUG	-0.433 ± 0.082	-0.322 ± 0.11

Sequence	self-splicing fitness (ln) (30 °C)	self-splicing fitness (ln) (37 °C)
UAUUAGCAAUAUUACGCAGA	-1.96 ± 0.28	-1.63 ± 0.23
UAUUAGCAAUAUUACGCCAG	-1.17 ± 0.28	–
UAUUAGCAAUAUUACGCGGU	-3.62 ± 0.36	-1.8 ± 0.37
UAUUAGCAAUAUUACGCUAA	–	-1.1 ± 0.46
UAUUAGCAAUAUUACGGACC	-1.51 ± 0.43	–
UAUUAGCAAUAUUACGGAGG	-2.95 ± 0.28	-1.84 ± 0.34
UAUUAGCAAUAUUACGGCAA	-1.06 ± 0.14	-0.784 ± 0.15
UAUUAGCAAUAUUACGGCAU	-1.99 ± 0.16	-0.541 ± 0.12
UAUUAGCAAUAUUACGGCCU	-0.879 ± 0.21	-0.611 ± 0.27
UAUUAGCAAUAUUACGGCGC	-1.74 ± 0.13	-0.453 ± 0.17
UAUUAGCAAUAUUACGGCUC	-0.997 ± 0.4	0.595 ± 0.44
UAUUAGCAAUAUUACGGCUU	-1.35 ± 0.13	-0.478 ± 0.17
UAUUAGCAAUAUUACGGGAA	-0.606 ± 0.27	-1.45 ± 0.31
UAUUAGCAAUAUUACGGGGU	–	-1.52 ± 0.38
UAUUAGCAAUAUUACGUAAA	-2.63 ± 0.25	-1.09 ± 0.38
UAUUAGCAAUAUUACGUCCU	-1.69 ± 0.2	-0.635 ± 0.21
UAUUAGCAAUAUUACGUUGC	-3.57 ± 0.31	-2.59 ± 0.25
UAUUAGCAAUAUUACGUUGU	-3.93 ± 0.34	-3.04 ± 0.4
UCAAAGCAAUAUUACGAGAA	-3.28 ± 0.34	-1.48 ± 0.25
UCAAAGCAAUAUUACGAGCG	-0.712 ± 0.088	-0.172 ± 0.11
UCAAAGCAAUAUUACGAGUC	-3.79 ± 0.21	-2.26 ± 0.22
UCAAAGCAAUAUUACGCAAC	-4.31 ± 0.42	–
UCAAAGCAAUAUUACGCGAU	–	-1.64 ± 0.23
UCAAAGCAAUAUUACGCGCA	-0.442 ± 0.066	-0.207 ± 0.077
UCAAAGCAAUAUUACGCGCG	-0.683 ± 0.082	0.256 ± 0.097

Sequence	self-splicing fitness (ln) (30 °C)	self-splicing fitness (ln) (37 °C)
UCAAAGCAAUAUUACGCGGG	-3.64 ± 0.19	-2.14 ± 0.16
UCAAAGCAAUAUUACGCUAG	-1.25 ± 0.076	-1.29 ± 0.1
UCAAAGCAAUAUUACGGAGU	-3.11 ± 0.13	-1.69 ± 0.14
UCAAAGCAAUAUUACGGCAU	-2.94 ± 0.14	-2.75 ± 0.14
UCAAAGCAAUAUUACGGCCU	–	-1.28 ± 0.17
UCAAAGCAAUAUUACGGCGA	-0.708 ± 0.074	-0.462 ± 0.068
UCAAAGCAAUAUUACGGGGU	-3.42 ± 0.17	-3.33 ± 0.26
UCAAAGCAAUAUUACGGGUA	-0.981 ± 0.096	0.505 ± 0.093
UCAAAGCAAUAUUACGUAAU	-4.1 ± 0.21	-3.66 ± 0.21
UCAAAGCAAUAUUACGUGGC	-3.62 ± 0.32	-2.45 ± 0.32
UCAAAGCAAUAUUACGUGUA	-1.78 ± 0.07	-0.388 ± 0.066
UCAAAGCAAUAUUACGUUUA	-2.71 ± 0.16	-2.51 ± 0.18
UCACAGCAAUAUUACGAAAC	-3.36 ± 0.37	-2.7 ± 0.25
UCACAGCAAUAUUACGAAGG	-1.55 ± 0.097	-0.755 ± 0.12
UCACAGCAAUAUUACGACUC	-3.43 ± 0.12	-1.44 ± 0.13
UCACAGCAAUAUUACGAGGA	-1.73 ± 0.13	-1.65 ± 0.13
UCACAGCAAUAUUACGAGUG	-2.04 ± 0.09	-0.607 ± 0.09
UCACAGCAAUAUUACGAUCU	-2.71 ± 0.1	-1.78 ± 0.11
UCACAGCAAUAUUACGCAAG	-2.65 ± 0.17	-1.11 ± 0.15
UCACAGCAAUAUUACGCACA	-0.445 ± 0.088	-0.743 ± 0.12
UCACAGCAAUAUUACGCAGG	-3.13 ± 0.13	-1.52 ± 0.11
UCACAGCAAUAUUACGCAGU	-4.13 ± 0.21	-2.17 ± 0.16
UCACAGCAAUAUUACGCAUA	-2.02 ± 0.097	-1.68 ± 0.093
